In patent US20150023979A1 (VALDOSPAN, published 2015) one finds binding result, Kd and kon data, which are given here for three molecules.

Assay [1] has as its target T1, HPV33 E7 protein, recombinant (His-TEV-E7 fusion from E. coli) (Human Papilloma Virus type 33 (HPV33), UniProt P06429 1-97, CKII phosphorylation of the consensus site serines in the antigen preparation of Example 2; biotin on primary amines in the SPR assay).
T1 construct: mature; also called VE7_HPV33; not shown: N-terminal 6x Histidine tag and TEV cleavage site of the vector
T1 sequence: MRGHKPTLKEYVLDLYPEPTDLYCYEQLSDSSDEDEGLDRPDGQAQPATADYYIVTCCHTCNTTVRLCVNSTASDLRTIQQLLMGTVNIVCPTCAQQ
Nature of the assay: ELISA and dot-blot, semiquantitative crossreactivity (+ weak interaction). (In general: ELISA stands for enzyme-linked immunosorbent assay.)

The target in assay [2] is T2, HPV51 E7 protein, recombinant (His-TEV-E7 fusion from E. coli) (Human Papilloma Virus type 51 (HPV51), UniProt P26558 1-101, CKII phosphorylation of the consensus site serines in the antigen preparation of Example 2).
T2 construct: mature; also called VE7_HPV51; not shown: N-terminal 6x Histidine tag and TEV cleavage site of the vector
T2 sequence: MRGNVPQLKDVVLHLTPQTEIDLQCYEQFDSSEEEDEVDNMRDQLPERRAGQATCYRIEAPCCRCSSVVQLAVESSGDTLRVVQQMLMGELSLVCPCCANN
Put plainly: ELISA and dot-blot, semiquantitative crossreactivity (++ strong positive).

Assay [3] has as its target T3, HPV56 E7 protein, recombinant (His-TEV-E7 fusion from E. coli) (Human Papilloma Virus type 56 (HPV56), UniProt P36833 1-105, CKII phosphorylation of the consensus site serines in the antigen preparation of Example 2).
T3 construct: mature; also called VE7_HPV56; not shown: N-terminal 6x Histidine tag and TEV cleavage site of the vector
T3 sequence: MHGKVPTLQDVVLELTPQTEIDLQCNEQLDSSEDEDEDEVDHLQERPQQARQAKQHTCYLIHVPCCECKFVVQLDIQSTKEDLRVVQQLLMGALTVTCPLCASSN
The assay is described as above.

The target of assay [4] is T4, HPV58 E7 protein, recombinant (His-TEV-E7 fusion from E. coli) (Human Papilloma Virus type 58 (HPV58), UniProt P26557 1-98, CKII phosphorylation of the consensus site serines in the antigen preparation of Example 2).
T4 construct: mature; also called VE7_HPV58; not shown: N-terminal 6x Histidine tag and TEV cleavage site of the vector
T4 sequence: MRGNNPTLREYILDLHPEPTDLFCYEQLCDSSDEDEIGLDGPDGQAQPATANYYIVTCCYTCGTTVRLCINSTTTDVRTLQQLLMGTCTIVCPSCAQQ
Put plainly: ELISA, HPV58E7 immobilised on polystyrene plates in 3-fold dilution steps, detected with ACAB452.

In assay [5] the target is T5, HPV31 E7 protein, recombinant (His-TEV-E7 fusion from E. coli) (Human Papilloma Virus type 31 (HPV31), UniProt P17387 1-98, CKII phosphorylation of the consensus site serines in the antigen preparation of Example 2).
T5 construct: mature; also called VE7_HPV31; not shown: N-terminal 6x Histidine tag and TEV cleavage site of the vector
T5 sequence: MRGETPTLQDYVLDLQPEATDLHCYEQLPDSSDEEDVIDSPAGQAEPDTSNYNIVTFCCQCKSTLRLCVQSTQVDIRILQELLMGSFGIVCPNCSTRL
Nature of the assay: ELISA, HPV31E7 immobilised on polystyrene plates in 3-fold dilution steps, detected with ACAB452; no concentrations printed on the X axis.

The target of assay [6] is T6, HPV18 E7 protein, recombinant (His-TEV-E7 fusion from E. coli) (Human Papilloma Virus type 18 (HPV18), UniProt P06788 1-105, CKII phosphorylation of the consensus site serines in the antigen preparation of Example 2; biotin on primary amines in the SPR assay).
T6 construct: mature; also called VE7_HPV18; not shown: N-terminal 6x Histidine tag and TEV cleavage site of the vector
T6 sequence: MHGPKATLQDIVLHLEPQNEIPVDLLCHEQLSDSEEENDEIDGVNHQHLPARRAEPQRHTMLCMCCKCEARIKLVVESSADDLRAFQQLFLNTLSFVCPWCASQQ
Put plainly: ELISA and dot-blot, semiquantitative crossreactivity.

In assay [7] the target is T1, HPV33 E7 protein, recombinant …. Nature of the assay: ELISA and dot-blot, semiquantitative crossreactivity (++ strong positive).
Procedure: (§1) Using ELISA and dot-blot techniques semiquantitative crossreactivities of the isolated mAbs was analysed. For this various mAbs were tested against the accepted high risk species.
The target in assay [8] is T7, HPV35 E7 protein, recombinant (His-TEV-E7 fusion from E. coli) (Human Papilloma Virus type 35 (HPV35), UniProt P27230 1-99, CKII phosphorylation of the consensus site serines in the antigen preparation of Example 2).
T7 construct: mature; also called VE7_HPV35; not shown: N-terminal 6x Histidine tag and TEV cleavage site of the vector
T7 sequence: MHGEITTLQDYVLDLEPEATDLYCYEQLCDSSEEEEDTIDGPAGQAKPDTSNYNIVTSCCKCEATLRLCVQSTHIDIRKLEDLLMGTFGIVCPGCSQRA
The description is as above.

For assay [9], the target named is T5, HPV31 E7 protein, recombinant …. The assay is described as above.
Procedure: as §1
The target in assay [10] is T8, HPV16 E7 protein, recombinant (His-TEV-E7 fusion from E. coli) (Human Papilloma Virus type 16 (HPV16), UniProt P03129 1-98, CKII phosphoserines at E7 S31 and S32 (chain 1 pos 49 and 50) in the antigen preparation of Example 2, written S; biotin on primary amines (Sulfo-NHS-LC Biotin) in the SPR assay.).
T8 construct: also called VE7_HPV16
T8 sequence: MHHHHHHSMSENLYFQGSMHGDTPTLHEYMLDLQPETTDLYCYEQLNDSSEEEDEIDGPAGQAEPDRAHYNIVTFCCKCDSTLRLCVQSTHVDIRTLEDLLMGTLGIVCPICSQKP
Nature of the assay: SPR (BIAcore X100), biotin-E7 on streptavidin SA chip, antibody as analyte, bivalent analyte fit, 25 C. For orientation: SPR reads the build-up and loss of mass on a sensor chip optically.

Assay [11] concerns the target T6, HPV18 E7 protein, recombinant …. Nature of the assay: ELISA and dot-blot, semiquantitative crossreactivity (+ weak interaction).
Procedure: as §1

B1: ACAB452 (antibody, IgG1, V domains shown)
VH: DVQLQESGPGLVKPSQSLSLTCTVTGYSITSDYAWNWIRQFPGNKLEWVGYITYSGSTNYNPSLKSRISITRDTSKNQFFLQFNSVTSEDTATYFCARSWFAYWGQGTLVTVSS
VL: DIVMTQTPLSLPVSLGDQASISCRSSQSLVHSNGNTYLHWFLQKPGQSPKLLIYKVSNRFSGVPDRFSGSGSGTDFTLKISRVEAEDLGVYFCLQSAHVPLTFGAGTKLELTR
notes: also called HPV45E7 IgG1 antibody ACAB452
Consider B1, for which the binding result in assay [1] is “binds”; in assay [2], “binds”; in assay [3], “binds”; in assay [4], “no binding (tested: 800 nM immobilised antigen (per legend))”; in [5], “binds”.

B2: ACAB164 (antibody, V domains shown)
VH: EVQLQQSGLALVQPGASVKISCRTSGYTFTEYTLHWVKQSHGKSLEWIGGINPNNGSPKYNQKFKGKATLTVDKSSSTAYMELRSLTSEDSAVYYCARLDINSFFDYWGQGTTLTVSS
VL: DVVMTQSPLSLPVSLGDQASISCRSSQSLVHSNGNTYLQWYLQKPGQSPKLLIYKLSNRFSGVPDRFSGSGSGTDFTLKISRVEAEDLGVYSCSQTTHVPPTFGGGTKLEIKR
notes: the printed entries run on into the first residues of the constant domains; also called HPV16E7 IgG2a antibody ACAB164
As for B2, the binding result is listed as “no binding” in assay [6], “binds” in [7], “binds” in [8] and “binds” in assay [9]. The Kd in [10] is 0.052 nM. Further, the kon – broadly, a measure of how fast the partners come together – in assay [10] was 261000 M⁻¹ s⁻¹.

B3: ACAB161 (antibody, IgG2a, V domains shown)
VH: EVMLVESGGGLVKPGGSLKLSCAASGFTFSRYTMSWVRQTPEKRLEWVATISSGGTNTNYTDSVKGRFTISRDNAKNNLYLQMSSLRSEDTALYYCTRGVRRGDGYAMDYWGQGTSVTVSS
VL: DIVLTQAAPSVPVTPGESVSISCRSTKSLLHSNGNTYLYWFLQRPGQSPQALIYRTSNLASGVPDRFSGSGSGTAFTLRISRVEAEDVGVYYCMQHLEYPLTFGAGTKLELKR
notes: the printed entries run on into the first residues of the constant domains; also called HPV16E7 IgG2a antibody ACAB161
B3: the binding result in assay [11], in assay [7] and in assay [9] was “binds” throughout. The Kd in [10] stood at 3.38 nM. For the same molecule, in [10], the kon came to 58400 M⁻¹ s⁻¹.
